Experimental data: patent publication US20060105378

Target: Tenascin-C (Homo sapiens) (UniProt P24821)
Assay: filter
Conditions: 2'-F all C and U; 2'-OMe all A and G except G1,G9,G28,G31,G34 (TN9 numbering) 2'-OH; (CH2CH2O)6 spacer replaces nt 10-26 (n in SEQ 64); 5' hexylamine; 3'-3' dT cap

Sequence of Tenascin-C (Homo sapiens) (P24821 23-2201): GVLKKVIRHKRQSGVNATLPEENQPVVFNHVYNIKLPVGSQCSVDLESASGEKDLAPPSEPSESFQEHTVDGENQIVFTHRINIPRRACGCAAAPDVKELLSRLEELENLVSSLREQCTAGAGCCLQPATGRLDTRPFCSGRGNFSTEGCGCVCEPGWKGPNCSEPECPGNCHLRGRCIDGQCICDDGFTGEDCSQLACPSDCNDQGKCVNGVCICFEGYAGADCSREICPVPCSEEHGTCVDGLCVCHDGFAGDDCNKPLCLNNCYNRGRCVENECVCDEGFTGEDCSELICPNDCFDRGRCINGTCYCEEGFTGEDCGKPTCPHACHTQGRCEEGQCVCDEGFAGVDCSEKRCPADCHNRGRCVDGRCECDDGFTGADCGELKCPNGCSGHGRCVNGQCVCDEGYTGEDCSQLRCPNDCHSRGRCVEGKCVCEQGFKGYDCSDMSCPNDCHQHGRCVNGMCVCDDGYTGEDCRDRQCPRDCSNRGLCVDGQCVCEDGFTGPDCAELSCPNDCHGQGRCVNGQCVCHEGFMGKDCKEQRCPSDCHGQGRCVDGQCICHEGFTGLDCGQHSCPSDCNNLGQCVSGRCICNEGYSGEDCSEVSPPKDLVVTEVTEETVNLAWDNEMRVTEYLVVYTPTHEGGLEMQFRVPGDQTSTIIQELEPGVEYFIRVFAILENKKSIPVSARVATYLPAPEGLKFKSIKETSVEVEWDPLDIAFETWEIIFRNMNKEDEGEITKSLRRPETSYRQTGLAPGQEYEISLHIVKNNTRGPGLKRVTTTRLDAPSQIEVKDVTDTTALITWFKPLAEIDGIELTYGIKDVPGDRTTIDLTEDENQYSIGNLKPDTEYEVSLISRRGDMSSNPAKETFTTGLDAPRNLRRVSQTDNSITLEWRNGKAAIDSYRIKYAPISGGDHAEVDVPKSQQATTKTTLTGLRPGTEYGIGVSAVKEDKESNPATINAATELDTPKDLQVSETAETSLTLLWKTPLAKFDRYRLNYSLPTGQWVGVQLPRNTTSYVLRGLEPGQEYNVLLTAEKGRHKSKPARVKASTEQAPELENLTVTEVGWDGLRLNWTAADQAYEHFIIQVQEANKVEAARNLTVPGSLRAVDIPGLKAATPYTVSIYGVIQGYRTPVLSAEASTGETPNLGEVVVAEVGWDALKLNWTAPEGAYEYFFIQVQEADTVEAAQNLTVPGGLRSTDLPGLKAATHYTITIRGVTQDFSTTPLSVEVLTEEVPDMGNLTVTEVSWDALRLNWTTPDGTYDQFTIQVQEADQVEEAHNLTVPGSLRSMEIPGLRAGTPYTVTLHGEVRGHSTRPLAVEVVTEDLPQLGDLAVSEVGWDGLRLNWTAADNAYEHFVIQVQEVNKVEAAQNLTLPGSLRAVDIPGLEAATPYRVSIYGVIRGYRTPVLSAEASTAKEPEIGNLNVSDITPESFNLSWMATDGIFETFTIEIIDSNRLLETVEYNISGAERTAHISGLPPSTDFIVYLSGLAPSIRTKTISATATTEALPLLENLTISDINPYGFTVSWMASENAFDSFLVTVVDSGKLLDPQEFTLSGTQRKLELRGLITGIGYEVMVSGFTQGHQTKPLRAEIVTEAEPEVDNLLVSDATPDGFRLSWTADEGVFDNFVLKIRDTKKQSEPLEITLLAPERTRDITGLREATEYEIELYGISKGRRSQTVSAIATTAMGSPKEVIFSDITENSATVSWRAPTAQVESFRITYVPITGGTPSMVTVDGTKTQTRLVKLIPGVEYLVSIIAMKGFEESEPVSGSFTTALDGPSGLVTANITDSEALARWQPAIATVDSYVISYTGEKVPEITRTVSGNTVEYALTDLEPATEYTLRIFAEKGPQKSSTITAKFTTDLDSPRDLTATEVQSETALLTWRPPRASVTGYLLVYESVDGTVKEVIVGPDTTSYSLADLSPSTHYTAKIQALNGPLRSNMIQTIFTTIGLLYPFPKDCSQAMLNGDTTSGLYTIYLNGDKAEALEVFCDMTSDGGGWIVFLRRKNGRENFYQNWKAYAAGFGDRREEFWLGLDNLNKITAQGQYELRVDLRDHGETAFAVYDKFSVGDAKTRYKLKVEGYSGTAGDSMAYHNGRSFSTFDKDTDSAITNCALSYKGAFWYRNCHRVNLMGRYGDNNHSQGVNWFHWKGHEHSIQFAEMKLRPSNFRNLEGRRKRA

For “GGGAGGACGNCGUCGCCGUAAUGGAUGUUUUGCUCCCUG [TTA1 (GS7641)]”, the Kd was 5 nM.
